# Assay results as given in IntAct's records for PubMed 19581362.
# B1: Chemotaxis protein CheA (Escherichia coli (strain K12)), P07363 (parent)
# chain: MSMDISDFYQTFFDEADELLADMEQHLLVLQPEAPDAEQLNAIFRAAHSIKGGAGTFGFSVLQETTHLMENLLDEARRGEMQLNTDIINLFLETKDIMQEQLDAYKQSQEPDAASFDYICQALRQLALEAKGETPSAVTRLSVVAKSEPQDEQSRSQSPRRIILSRLKAGEVDLLEEELGHLTTLTDVVKGADSLSAILPGDIAEDDITAVLCFVIEADQITFETVEVSPKISTPPVLKLAAEQAPTGRVEREKTTRSNESTSIRVAVEKVDQLINLVGELVITQSMLAQRSSELDPVNHGDLITSMGQLQRNARDLQESVMSIRMMPMEYVFSRYPRLVRDLAGKLGKQVELTLVGSSTELDKSLIERIIDPLTHLVRNSLDHGIELPEKRLAAGKNSVGNLILSAEHQGGNICIEVTDDGAGLNRERILAKAASQGLTVSENMSDDEVAMLIFAPGFSTAEQVTDVSGRGVGMDVVKRNIQKMGGHVEIQSKQGTGTTIRILLPLTLAILDGMSVRVADEVFILPLNAVMESLQPREADLHPLAGGERVLEVRGEYLPIVELWKVFNVAGAKTEATQGIVVILQSGGRRYALLVDQLIGQHQVVVKNLESNYRKVPGISAATILGDGSVALIVDVSALQAINREQRMANTAA
# partner: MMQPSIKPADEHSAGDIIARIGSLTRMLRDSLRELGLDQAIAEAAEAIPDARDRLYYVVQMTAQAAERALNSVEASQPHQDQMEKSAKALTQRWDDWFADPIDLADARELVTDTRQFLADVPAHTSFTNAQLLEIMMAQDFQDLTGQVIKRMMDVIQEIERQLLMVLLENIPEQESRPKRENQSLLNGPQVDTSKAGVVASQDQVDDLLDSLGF
# Variants of: B1
# Settings: with chez_ecoli cheZ
row,Variant,effect of a mutation on the interaction
1,Y118C,decreasing interaction strength
2,L123C,decreasing interaction strength

# The remaining lines, values ahead:
row,effect of a mutation on the interaction,Variant
1,decreasing interaction strength,R124C
2,decreasing interaction strength,L126C
